Data as given in PMC6349918, “A five-residue motif for the design of domain swapping in proteins” (Nature Communications, 2019).
Where a chain is given by its changes, count along the chain named.

B1: L1MK-Ctd (MK-Ctd with QVVAG engineered into loop1) (domain or fragment)
chain: MVPSRFEDVRVVQVVAGWRVSVKIAETEEGEVVTVKAEFDECREIGEETGIPPREVKAMVEAAARVGGWVDLKEREIKVQEG
B2: L1MK-Ctd* (L1MK-Ctd with QVVAG mutated to QVNAG) (domain or fragment)
chain: B1 chain with V15N

Target: the molecule itself
Test: SEC; MK-Ctd and its loop variants; Superdex 75 10/300 GL; 20 mM Tris-HCl, 500 mM GdnHCl, pH 8; monomer to dimer

| Protein | stoichiometry N |
| --- | --- |
| B1 | 2 |
| B2 | 2 |
